Data published in publication PMC12376085.

Biological target: HLA-A2/β2M complex on T2 cells (no pulsed peptide) (human (endogenous in T2) | human)
Test: flow cytometry on cells

| MFI of surface HLA-A2 on peptide-pulsed T2 cells | Binder |
| --- | --- |
| 74200 | RMFPNAPYL [… peptide (WT1 126–134)] |
| 53900 | ILSLELMKL [… peptide] |
